Test results reported in the supplement of paper PMC6379048.

Key:
Assay in all cases: EC50 of free RNA motif oligo competing protein binding to immobilised probe
[1] = target: T1, RBM14 (UniProt Q96PK6)
T1 sequence: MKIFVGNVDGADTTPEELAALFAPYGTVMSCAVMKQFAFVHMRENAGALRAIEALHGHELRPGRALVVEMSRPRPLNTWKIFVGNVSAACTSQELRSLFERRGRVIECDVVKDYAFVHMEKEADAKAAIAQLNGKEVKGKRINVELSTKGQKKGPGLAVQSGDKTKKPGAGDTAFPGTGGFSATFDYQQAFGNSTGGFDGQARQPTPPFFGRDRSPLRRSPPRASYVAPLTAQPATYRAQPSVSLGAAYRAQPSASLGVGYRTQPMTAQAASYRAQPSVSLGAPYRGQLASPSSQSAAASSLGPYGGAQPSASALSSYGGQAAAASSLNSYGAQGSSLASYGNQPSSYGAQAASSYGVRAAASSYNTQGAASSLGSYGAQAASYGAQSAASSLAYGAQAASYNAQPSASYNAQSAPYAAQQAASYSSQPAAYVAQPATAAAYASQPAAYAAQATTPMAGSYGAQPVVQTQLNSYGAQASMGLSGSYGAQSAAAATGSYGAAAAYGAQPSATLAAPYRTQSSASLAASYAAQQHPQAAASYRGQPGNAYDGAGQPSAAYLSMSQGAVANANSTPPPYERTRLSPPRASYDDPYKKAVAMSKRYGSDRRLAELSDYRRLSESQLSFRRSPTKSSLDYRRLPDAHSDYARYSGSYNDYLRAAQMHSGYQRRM
Outline: (§1)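 Free RNA oligos (0 nM to 30 μM) competed for 1 h at 4°C in HEK293-FT lysate (2.5 mg protein/well) before a 30 min, 4°C pulldown with the same oligos on NHS-Sepharose beads. Bound proteins were quantified by label-free LC-MS/MS and normalised to the control. Kd was found by multiplying EC50, from a four-parameter log-logistic fit, by a protein-dependent depletion factor.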

[2] = target: T2, RBM47 (UniProt A0AV96)
T2 sequence: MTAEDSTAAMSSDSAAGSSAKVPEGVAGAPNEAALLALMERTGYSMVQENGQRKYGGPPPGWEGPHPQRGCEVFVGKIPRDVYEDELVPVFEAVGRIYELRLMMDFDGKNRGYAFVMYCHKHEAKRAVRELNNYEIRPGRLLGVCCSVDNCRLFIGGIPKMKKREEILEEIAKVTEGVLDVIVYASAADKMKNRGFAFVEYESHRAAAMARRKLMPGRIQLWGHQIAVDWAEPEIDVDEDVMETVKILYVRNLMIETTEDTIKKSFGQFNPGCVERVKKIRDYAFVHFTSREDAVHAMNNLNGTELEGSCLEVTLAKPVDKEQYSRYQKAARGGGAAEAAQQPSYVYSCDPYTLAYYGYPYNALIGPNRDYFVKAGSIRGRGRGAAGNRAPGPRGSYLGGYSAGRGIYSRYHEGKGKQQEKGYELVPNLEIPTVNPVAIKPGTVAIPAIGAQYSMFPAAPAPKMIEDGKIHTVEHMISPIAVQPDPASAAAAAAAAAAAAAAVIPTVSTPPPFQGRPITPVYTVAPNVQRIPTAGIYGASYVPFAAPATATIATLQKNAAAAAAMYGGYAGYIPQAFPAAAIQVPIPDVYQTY
Outline: as §1

[3] = target: T3, DDX21 (UniProt Q9NR30)
T3 sequence: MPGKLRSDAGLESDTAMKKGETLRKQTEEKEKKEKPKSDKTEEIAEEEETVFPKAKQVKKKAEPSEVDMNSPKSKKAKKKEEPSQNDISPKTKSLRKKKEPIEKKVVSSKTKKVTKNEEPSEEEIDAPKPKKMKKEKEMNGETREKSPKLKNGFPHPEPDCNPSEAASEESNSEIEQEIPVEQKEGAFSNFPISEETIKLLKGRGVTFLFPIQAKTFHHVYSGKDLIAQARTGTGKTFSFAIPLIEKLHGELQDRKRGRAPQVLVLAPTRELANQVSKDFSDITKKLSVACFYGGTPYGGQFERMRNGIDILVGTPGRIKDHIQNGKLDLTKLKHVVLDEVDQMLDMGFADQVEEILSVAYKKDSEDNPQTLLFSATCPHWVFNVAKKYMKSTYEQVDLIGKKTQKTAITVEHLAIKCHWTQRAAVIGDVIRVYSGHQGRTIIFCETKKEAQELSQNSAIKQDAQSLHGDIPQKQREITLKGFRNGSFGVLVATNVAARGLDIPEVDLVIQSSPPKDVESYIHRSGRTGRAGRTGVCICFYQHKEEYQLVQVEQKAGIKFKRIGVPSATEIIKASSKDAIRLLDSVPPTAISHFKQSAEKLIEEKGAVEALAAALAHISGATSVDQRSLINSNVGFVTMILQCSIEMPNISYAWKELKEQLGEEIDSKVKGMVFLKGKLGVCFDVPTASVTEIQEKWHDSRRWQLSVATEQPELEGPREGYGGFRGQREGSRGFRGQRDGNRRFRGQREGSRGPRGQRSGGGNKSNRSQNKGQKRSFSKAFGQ
Outline: as §1

Row | Sequence | EC50 [1] [nM] | EC50 [2] [nM] | EC50 [3] [nM]
1 | AAUAAA | 1980 | 3730 | –
2 | CUGUCCU | – | – | 116
